Reference: publication PMC8842248 (2022)
*: point of attachment. Farnesyl = CC(C)=CCC/C(C)=C/CC/C(C)=C/C*

Columns and labels:
[1] = molecular target: T1, PDE6D (phosphodiesterase 6 delta), wild type, polyhistidine tag removed (UniProt O43924 1-150); assay: FP; in the presence of 500 uM Compound-2
[2] = molecular target: T1, PDE6D (phosphodiesterase 6 delta), wild …; assay: FP; replicate 3
[3] = molecular target: T1, PDE6D (phosphodiesterase 6 delta), wild …; assay: FP; + compound-1, replicate 2
[4] = molecular target: T1, PDE6D (phosphodiesterase 6 delta), wild …; assay: FP; + compound-1, average of 3 replicates
[5] = molecular target: T1, PDE6D (phosphodiesterase 6 delta), wild …; assay: FP; + compound-1, replicate 3
[6] = molecular target: T1, PDE6D (phosphodiesterase 6 delta), wild …; assay: FP; average of 3 replicates
[7] = molecular target: T1, PDE6D (phosphodiesterase 6 delta), wild …; assay: FP; + compound-1, replicate 1

- Kd [1]: 55200 nM
- Kd [2]: 1100 nM
- Kd [3]: 1700 nM
- Kd [4]: 1300 nM
- Kd [5]: 1200 nM
- Kd [6]: 1400 nM
- Kd [7]: 1000 nM
Binder: {FAM}-KKKKKKSKTKC(Farnesyl)-OMe [fluorescein-labeled KRAS HVR peptide, FAM-KKKKKKSKTKC(OMe)-Far]
